From the DeepSol protein solubility set

assay: soluble on expression in E. coli; label from the status in PepcDB or PDB records

**Q.** Which “soluble on expression in E. coli” value does the source give for “EHNKRVNLANAGRVSSAEGIKKLRASGVKFVWVDQSLSAQQCVFKPVEEPIDIEVGDKTLSVSSKVQRAYRSREVQHKRAKKLIAEAKGLAQKLLNQTFEGKVIQVDEIESWADDMIESVFIDSDALQCVSALRQKDSYLLEHSVNVACLLVSFGKHLGLDKDTLKQLAIGGIIHDVGKIKVDDKILHKPARLTPEEFEHMKLHQVFAGEIIVEVKGLSDVSRDVCLMHHEKLDGTGYPRGLSGDEIPIHGRMSCIVDIYDALTADRCYKKGMSSAEAFKILLSLTPFHLDPDL” here?
**A.** Its value is “not soluble”.

**Q.** With “MTKDLLLELGLEELPAYVVTPSEKQLGQKMVKFLEDHRLSFETVQIFSTPRRLAVRVKGLADQQTDLTEDFKGPSKKIALDAEGNFSKAAQGFVRGKGLSVDDIEFREVKGEEYVYVTKHETGKSAIDVLASVTEVLTELTFPVNMHWANNSFEYIRPVHTLVVLLDDQALELDFLDIHSGRISRGHRFLGSDTEISSASSYEDDLRQQFVIADAKERQQMIVNQIHAIEEKKNISVEIDEDLLNEVLNLVEYPTAFLGSFDEKYLDVPEEVLVTSMKNHQRYFVVRDRDGKLLPNFISVRNGNAEHIENVIKGNEKVLVARLEDGEFFWQEDQKLNIADLVEKLKQVTFHEKIGSLYEHMDRVKVISQYLAEKADLSDEEKLAVLRAASIYKFDLLTGMVDEFDELQGIMGEKYALLAGEQPAVAAAIREHYMPTSADGELPETRVGAILALADKFDTLLSFFSVGLIPSGSNDPYALRRATQGIVRILEAFGWDIPLDELVTNLYGLSFASLDYANQKEVMAFISARIEKMIGSKVPKDIREAVLESDTYI” as the sequence, how does the “soluble on expression in E. coli” value read?
**A.** Its value is “not soluble”.

**Q.** Which “soluble on expression in E. coli” value does the source give for “MMKTNTKKAKYDDAELFEKVLVGMSWLESHLREIIQTMVTDADVSFEQFLILYYLDHSTDHRITVKELAADRHVSSSAISRKLTYLINNDLIVLNIDPYDRRYRYLTLTAKGEKLARVIEKVNEERLGKFLDEFGRIRTSELTDELRMVSKVLVDTKEIKG” here?
**A.** The value was “not soluble”.

**Q.** For “MRDYVEIGMGREARRTYHLDSVAIVPSRRTRSSKDVDTTWHIDAYTFDIPFMSHPTDALATPDFVIEMDKQGGLGVINAEGLWGRHADLDAAIQEVITAYGDDELDLGSCNRATKKLQELHAAALDTELLVERIAQVRSSGAT”, which “soluble on expression in E. coli” value is on record?
**A.** Its value is “not soluble”.

**Q.** With “MGSDKIHHHHHHMQKPHLLITSAGRRAKLVEYFVKEFKTGRVSTADCSPLASALYMADQHYIVPKIDEVEYIDHLLTLCQDEGVTALLTLIDPELGLLAQATERFQAIGVTVIVSPYAACELCFDKYTMYEYCLRQGIAHARTYATMASFEEALAAGEVQLPVFVKPRNGSASIEVRRVETVEEVEQLFSKNTDLIVQELLVGQELGVDAYVDLISGKVTSIFIKEKLTMRAGETDKSRSVLRDDVFELVEHVLDGSGLVGPLDFDLFDVAGTLYLSEINPRFGGGYPHAYECGVNFPAQLYRNLMHEINVPQIGQYLDDIYMLKHDTVTLISAAELQKIKR” as the sequence, how does the “soluble on expression in E. coli” value read?
**A.** The value was “not soluble”.

**Q.** For “MSTQNEESEESARRPQSISHLARVEVEEPARKMRLMFGEKQVVFIRSDGLRSRVVRENMKKKLSQEIEKKEDLDTDSPNLTKVIDDVASGATGSSSLPSSSTESYSTSSSSSSSSSDLNSAYSSTSEPQATSSSAPESSTNSSASPEIKGNRNYHPPREFHGASTMVSHKRRWTYQTACDINAAEQSGDSEMYYIAHPLLPMPRGSGRNEVSTATRMNYAGQQIDNRKFRGQSKAVNQFANTESVTCEKCGMRYFFESIQMQERISYLLPPNEEDLPIALFECPVCKITTKVK”, which “soluble on expression in E. coli” value is on record?
**A.** Its value is “not soluble”.

**Q.** With “MGSDKIHHHHHHMETLYLKTLIVTAEKGSFSKAAAELCITQSAVSQRVKFLEERYGCELLDRSGPVMMLTAAGEAVVRKAQAILDIEKTLQDELKKFTGRQRLSICCTPSFGIAHMPKVLNRFMLRNADIVDLKFMFYSPEQAVKGLAEREFDIGIIEHCEDLDLADFHTATLPRDELVFVSAPSLGIPTPLVTIERLFEERLITRKDGCSSKKLLRLNLASIGKDLEGFRSTVVYDDLHLTVDTVLDGGGVAFVSSCLVNKYLENGQLKQHRVEGFCHSRQRTVALSRSKVQDRLVSDFLACLDTVFTDQCHRSSCPT” as the sequence, how does the “soluble on expression in E. coli” value read?
**A.** The value was “not soluble”.

**Q.** For “MKYKDLRDFIAMLEQQGKLKRVAHPVSPHLEMTEIADRVLRAEGPALLFENPVKPDGTRYDYPVLANLFGTPERVAMGMGADSVSKLREIGQTLAYLKEPEPPKGIKDAFSKLPLLKDIWSMAPNVVKNAPCQEIVWEGEDVDLYQLPIQHCWPEDVAPLVTWGLTVTRGPHKKRQNLGIYRQQLIGKNKLVMRWLSHRGGALDYQEFRKLNPDTPYPVAVVLGCDPSTILGAVTPVPDTLSEYQFAGLLRGSRTELVKCIGSDLQVPARAEIVLEGVIHPNETALEGPYGDHTGYYNEQGHFPVFTVERITMRENPIYHSTYTGKPPDEPAVLGVALNEVFVPLLQKQFSEITDFYLPPEGCSYRMAVVSMKKQYAGHAKRVMTGCWSFLRQFMYTKFIIVVDDDVNVRDWKEVIWAVTTRMDPVRDTVLVENTPIDYLDFASPVSGLGGKMGLDATSKWPGETDREWGRVIKKDPAVTVKIDGIWGKLGLLEHHHHHH”, which “soluble on expression in E. coli” value is on record?
**A.** The value was “not soluble”.

**Q.** With “MPQTPPFPVMYGSTNGYNKNLYKAKEEDYEGLYYHDNNLISGSLEALIEHLVPTVAYYPDRTYIFTFLLSSRLFLHPYELMSKVCHLCVDQQRLSDPQADKARVRKIAPKILQLLTEWTETFPYDFRDERMMKSLKELTHRLSTGEDLYRKAVQQMTQTLIRKLTTLSQYEEALAKINSSVTDRLTVLKTKPQSIQRDILTICNDPFTLAQQLTHIELERLSYIGPEEFVQAFVQKDPLDNDKNCFSDHKKASNLEAYVEWFNRLSYLVATEICMPVKKKHRARVIEFFIDVARECFNIGNFNSLMAIITGMNMSPVSRLKKTWAKVKTAKFDILEHQMDPSSNFYNYRTALRGATQRSITAHSSREKIVIPFFSLLIKDIYFLNEGCANRLPNGHVNFEKFWGLAKQVTEFMTWKKVECPFDRDRKILQYLLTAPVFSEDALYLASYESEGPENNMEKDRWKSLRSSLLNRT” as the sequence, how does the “soluble on expression in E. coli” value read?
**A.** The value was “soluble”.

**Q.** For “MAFNTPTLSTLIKQGEQQFQYRFPTLKRHNVIGVINRICAALSAGEHMHLDWLARQIIPTTAEEDYLIEYCLYKGIVRKQASTATGLVTVTAANDTTIPAGTVFEDTNTGLTFITTQETVVKAGTADIAVKCETTGVEGNLKAGTSLSLTSAILGLLPTATVKVMSGGADIESLSRLLARLIYRVQYPPAGGASHDYIRWATEVPGVTRAWCFERYYGGGTVGVAFACDEREDILPTPEDIARVRAYIEGHKNEVTGQFEGMPANVELYVFAPQFQAVNFKIRLAPNTPTLRQAVRKSLAAYLANAGVGALLYLSQIRATVSNTAGEVDNSVIFPTADVQLLSDNIAILGDIEWL”, which “soluble on expression in E. coli” value is on record?
**A.** The value was “not soluble”.

**Q.** For “MSLDAEKQLANITMGLPLSPAADSARSARHALSLIATARPPAFITTIAKEVHRHTALAANTQSQQSIHTTTLARAKGEILRVIEILIEKMPTDVVDLLVEVMDIIMYCLEGSLVKKKGLQECFPAICRFYMVSYYERSHRIAVGARHGSVALYDIRTGKCQTIHGHKGPITAVSFAPDGRYLATYSNTDSHISFWQMNTSLLGSIGMLNSAPQLRCIKTYQVPPVQPASPGSHNALKLARLIWTSNRNVILMAHDGKEHRFMVEGHHHHHH”, which “soluble on expression in E. coli” value is on record?
**A.** Its value is “not soluble”.

**Q.** With “MDANTLNVSFEEILKGKKLDEDSIGLTLSPDKDHEDGSQVSPTQDRKELDQVVGEDEKDDFFE” as the sequence, how does the “soluble on expression in E. coli” value read?
**A.** Its value is “soluble”.

**Q.** Which “soluble on expression in E. coli” value does the source give for “QKKVNVTGAVGMVSAEALEARPVANASQALQGVVPGLNLTVGNNGGALDGTLNMNIRGAGTIGDGSGSSPLVLIDGIEGDLNTVNPNDIESVSVLKDAASASIYGARASFGVILVTTKSGKSG” here?
**A.** Its value is “not soluble”.

**Q.** With “MGHHHHHHSHMRRFQRSTVIDAPRELVWAFHEQADVLEQLTPPWLPVEVVRREGGLGPGAVSEFRLWLGPVPIRWVATHNDDYEPGRCFCDRQSQGPFADWLHRHIFSREGDRTRLIDEVEYALPGGWLPELSVCPVVDAQLERLFAYRQQVTKQWCESRRDAFLQSNRTTKGLQSL” as the sequence, how does the “soluble on expression in E. coli” value read?
**A.** The value was “not soluble”.

**Q.** With “GPGSMGRQKSRNLWNDGEGTKSVCRPQQVTVAKGWRVTPDLLPAKPLAPRRRKYAPIRPNNRDAVAIPLGGQSYNPLDEEHQEALAKAVRQLSKKKLKDEKFVKMMTMGRDKKYTGNLSADKTWEEEVQETEPATAKTPKKKRTKTAPASTGASSSAPSSAPSPVTHNGNKAKHEKVAAAPAAVAKNGKTAKKQKKKTKKATAEEAKRAMTHRRHPKRGVVAKETDELDVLLAAHKATACKREVARQKRRAAKKANLAIKHYGRHYHTPLVLDVTPSDKLVGSLRHLSGGYVHPALERMKSLEERNLVPARMRHTYNKRKVLKPKGEVRVKREEFGVMPMTGF” as the sequence, how does the “soluble on expression in E. coli” value read?
**A.** Its value is “soluble”.

**Q.** Which “soluble on expression in E. coli” value does the source give for “MAPAEILNGKEISAQIRARLKNQVTQLKEQVPGFTPRLAILQVGNRDDSNLYINVKLKAAEEIGIKATHIKLPRTTTESEVMKYITSLNEDSTVHGFLVQLPLDSENSINTEEVINAIAPEKDVDGLTSINAGRLARGDLNDCFIPCTPKGCLELIKETGVPIAGRHAVVVGRSKIVGAPMHDLLLWNNATVTTCHSKTAHLDEEVNKGDILVVATGQPEMVKGEWIKPGAIVIDCGINYVPDDKKPNGRKVVGDVAYDEAKERASFITPVPGGVGPMTVAMLMQSTVESAKRFLEKFKPGKWMIQ” here?
**A.** The value was “soluble”.

**Q.** With “MGSDKIHHHHHHMLEKKARIADEAEIVDEAIVSRRSVRAFLPDMIDDDTIRDILEVAARAPSGTNMQPWRVYVTKGETKQQISDAILNSGIRAEKADWDEYRYYPTQFFEPYLTRRRANGFGLYGALGIGRREVDKMRAQHDRNFVFFDAPVGMIFTIDRRLNQGSWIDYGMFLQNIMVAARGRGLHTCPQAAFAPYHRQIRPVLNIPDEEIVVCGMALGYEDTSKPENAFRTDRVPLEEWVTFSE” as the sequence, how does the “soluble on expression in E. coli” value read?
**A.** Its value is “not soluble”.

**Q.** For “MSLVETPKCTCGNHGVMNKKEKIIFACSGASNVGELSNAAAVRLTKEGFGNKACTASLAIKTPSVMERVENAGEIVVIDGCPVSCAKRIADNSGVKVDQYIIITELGINKISDMDILDEDITKTVSAVKDGKSVCLDRKRENHKGSGCNCGCESKEGHHHHHH”, which “soluble on expression in E. coli” value is on record?
**A.** The value was “not soluble”.

**Q.** Which “soluble on expression in E. coli” value does the source give for “MITRIPRSSFSANINNTAQTNEHQTLSELFYKELEDKFSGKELATPLLKSFSENCRQNGRHIFSNKDFVIKFSTSVLQADKKEITIINKNENTTLTQTIAPIFEKYLMEILPQRSDTLDKQELNLKSDRKEKEFPRIKLNGQCYFPGRPQNRIVCRHIAAQYINDIYQNVDYKPHQDDYSSAEKFLTHFNKKCKNQTLALVSSRPEGRCVAACGDFGLVMKAYFDKMESNGISVMAAILLVDNHALTVRLRIKNTTEGCTHYVVSVYDPNVTNDKIRIMSESKENIKHYSLMDFMNVDYSLLKWSNDHVINQSVAIIPALPKEQLLMLKGSVDEITPPLSPATMNLLMAIGQNHQLTQLMIQLQKMPELHRTEMLTAYNSINLPGLYLAINYGNADIVETIFNSLSETGYEGLLSKKNLMHILEAKDKNGFSGLFLAISRKDKNVVTSILNALPKLAATHHLDNEQVYKFLSAKNRTSSHVLYHVMANGDADMLKIVLNALPLLIRTCHLTKEQVLDLLKAKDFYGCPGLYLAMQNGHSDIVKVILEALPSLAQEINISASDIVDLLTAKSLARDTGLFMAMQRGHMNVINTIFNALPTLFNTFKFDKKNMKPLLLANNSNEYPGLFSAIQHKQQNVVETVYLALSDHARLFGFTAEDIMDFWQHKAPQKYSAFELAFEFGHRVIAELILNTLNKMAESFGFTDNPRYIAEKNYMEALLKKASPHTVRAAALEHHHHHH” here?
**A.** Its value is “not soluble”.

**Q.** Which “soluble on expression in E. coli” value does the source give for “MSLLNIKFTDNAVDYLKRREILDKILILITDDGGGKYSIQGGSCSMGAHFSIIWLDKVDPDYPVKIANEQNVKIYTSDFDKTMLGPNMVMDYNAGSLSLSSDEGLLDGSVDIGNGAALLKANKNVQMGINRQCEGHHHHHH” here?
**A.** Its value is “soluble”.
